One assay addresses T1, Ly048.
T1 chain: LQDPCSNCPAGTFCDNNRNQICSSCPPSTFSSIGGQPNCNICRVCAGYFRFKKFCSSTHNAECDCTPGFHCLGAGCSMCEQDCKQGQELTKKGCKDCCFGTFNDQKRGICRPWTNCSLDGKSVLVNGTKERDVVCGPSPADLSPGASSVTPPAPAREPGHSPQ
In words: ELISA, clone 3712-IgG1v coated, CD137 protein titrated (EC50 is a concentration of the CD137 protein); curve only begins to rise: about 0.63 at 100000 ng/mL, no plateau, the fitted EC50 lies beyond the range tested. As for the experimental part:
The plate was decanted and washed once; assay diluent was added 200 μL/well. After one-hour incubation at room temperature, the plate was washed with PBST one time. CD137 receptor human/mouse chimeras were diluted in assay diluent to 100 or 10 μg/mL, and then a 4-fold serial dilution in assay diluent for 11 points to final concentrations of 100000, 25000, 6250, 1562.5, 390.63, 97.66, 24.41, 6.10, 1.53, 0.38 and 0.095 ng/mL or 10000, 2500, 625, 156.25, 39.06, 9.77, 2.44, 0.61, 0.15, 0.038 and 0.0095 ng/mL. The diluted CD137 receptor was added to the assay plate, 50 μL/well, in duplicate. The plate was incubated one hour at room temperature and then washed three times with PBST. Goat anti-human IgG-H+L HRP conjugated at 1:100,000 20 dilution was added to the plate at 100 μL/well. The plate was then incubated one hour at room temperature followed by washing with PBST four times. The TMB substrate solution was added at 100 μL/well. The color was allowed to develop for 15 minutes, and was stopped with 100 μL/well 2N H2SO4. Absorbance at 450 nm and 620 nm was determined by a Tecan F200 Pro reader.
A general note: In an ELISA, binding on a coated surface is turned into a signal by an enzyme label.

Assay [1] has as its target T2, recombinant cynomolgus monkey CD137 receptor protein (cynomolgus monkey, UniProt A9YYE7 24-186).
T2 construct: Coated on ELISA plates; also called Cyno CD137
In words: ELISA, cynomolgus CD137 protein coated; average, n=6. As for the experimental part:
The human or cynomolgus monkey CD137 receptor protein was diluted in DPBS to 1 μg/mL, and then coated onto an ELISA plate (Corning, Catalog number: 9018, high binding) with a volume of 100 μL (0.1 μg) or 50 μL (0.05 μg) per well, and incubated at 4° C. overnight. The plate was decanted and washed once; assay diluent was added 200 μL/well. After a one-hour incubation at room temperature, the plate was washed with PBST one time. […] The plate was incubated one hour at room temperature and then washed three times with PBST. Goat anti-human IgG-H+L HRP conjugated at 1:100,000 dilution was added to the plate at 100 μL/well. The plate was then incubated one hour at room temperature followed by washing with PBST four times. The TMB substrate solution was added at 100 μL/well. The color was allowed to develop for 15 minutes, and was stopped with 100 μL/well 2N H₂SO₄. Absorbance at 450 nm and 620 nm was determined by a Tecan F200 Pro reader.
Graphpad 7.0, “[Agonist] vs. response—Variable slope (four parameters)” was used to plot the binding data and calculate binding EC₅₀ values.

The target of the next assay is T3, human CD137 on cells (human, UniProt Q07011 24-255).
T3 construct: whole, on cells; also called CHO-human CD137; CHO cells over-expressing human CD137
T3 sequence (Q07011 24-255): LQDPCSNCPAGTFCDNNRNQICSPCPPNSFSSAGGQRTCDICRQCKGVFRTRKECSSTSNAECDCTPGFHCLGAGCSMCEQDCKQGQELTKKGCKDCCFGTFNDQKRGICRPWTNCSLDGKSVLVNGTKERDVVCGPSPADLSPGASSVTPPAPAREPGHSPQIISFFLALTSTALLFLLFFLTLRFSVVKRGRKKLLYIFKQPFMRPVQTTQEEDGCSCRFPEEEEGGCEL
Description: flow cytometry on CHO-human CD137 cells, PE anti-human IgG-Fc. Here is the method: CHO cells over-expressing human or cynomolgus monkey CD137 and CHO parental cells were harvested by centrifugation at 1000 g for 3 minutes. The cells were resuspended in ice cold assay buffer at 2*10\hat{ }6/mL and transferred to 96-well V-bottom plate with 100 μL/well. […] The plate was mixed and incubated in the dark for 2 hours at 4° C. The cells were washed 3 times by centrifugation at 1000 g for 3 min and resuspended in ice cold assay buffer containing goat F(ab′)₂ anti-human IgG-Fc (PE), 100 μL/well. The plate was incubated in the dark for another 1 hour at 4° C. The cells were washed 2 times by centrifugation at 1000 g for 3 min and resuspended in ice cold assay buffer containing 2% PFA. The cells were then subjected to the flow cytometer immediately.
Mean fluorescence intensity (MFI) was calculated from the total cell population in the FCM experiments. Graphpad 7.0, “[Agonist] vs. response—Variable slope (four parameters)” was used to plot the binding MFI in dose response and to calculate FCM binding EC₅₀ values.
(Flow cytometry measures light scatter and fluorescence of single cells or particles in a stream.)

Assay [2] concerns the target T4, recombinant human CD137 receptor protein (human, UniProt Q07011 24-186).
T4 construct: Coated on ELISA plates; also called recombinant human CD137 protein
Description: ELISA, clone 3712-IgG1v coated, huCD137 titrated (EC50 is a concentration of the CD137 protein); full sigmoid, plateau about 1.9.

The target in another assay is T5, human CD20 on CHO cells (human, UniProt P11836 1-297).
T5 construct: whole, on cells
T5 sequence (looked up): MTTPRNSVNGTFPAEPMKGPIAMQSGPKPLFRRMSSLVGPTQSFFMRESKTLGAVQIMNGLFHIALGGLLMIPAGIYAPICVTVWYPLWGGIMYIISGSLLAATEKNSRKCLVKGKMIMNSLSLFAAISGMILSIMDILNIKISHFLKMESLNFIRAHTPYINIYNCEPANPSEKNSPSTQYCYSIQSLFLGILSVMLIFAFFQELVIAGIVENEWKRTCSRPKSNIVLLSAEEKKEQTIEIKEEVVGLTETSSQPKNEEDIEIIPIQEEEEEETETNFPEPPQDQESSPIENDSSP
Description: flow cytometry on CHO cells over-expressing the target. Here is the method: (§1) The cells were resuspended in ice cold assay buffer at 2*10\hat{ }6/mL and transferred to 96-well V-bottom plate with 100 μL/well. […] The plate was incubated in the dark for 2 hours at 4° C. The cells were washed 3 times by centrifugation at 1000 g for 3 min and resuspended in 100 μL ice cold assay buffer containing goat F(ab′)₂ anti-human IgG-Fc (PE) or PE goat anti-mouse IgG antibody. The plate was incubated in the dark for another 1 hour at 4° C. The cells were washed 2 times by centrifugation at 1000 g for 3 min and resuspended in ice cold assay buffer containing 2% PFA and analyzed on the flow cytometer immediately.

In a further assay the target is T6, human CD47 on CHO cells (human, UniProt Q08722 19-323).
T6 construct: whole, on cells
The assay is described as above. Here is the method: as §1

This note sets out measurements from US20210246218A1 (LYVGEN BIOPHARMA SUZHOU, published 2021).

Several values for one entry are separate records, joined by “and”; a condition that tells them apart may be missing. Identical values can stand only once.

One may read the EC50 as the concentration that produces a half-maximal response. As usually defined, the EC50 (read off the curve) is the concentration at which the effect is half-maximal.

T2 sequence (A9YYE7 entry or part of it): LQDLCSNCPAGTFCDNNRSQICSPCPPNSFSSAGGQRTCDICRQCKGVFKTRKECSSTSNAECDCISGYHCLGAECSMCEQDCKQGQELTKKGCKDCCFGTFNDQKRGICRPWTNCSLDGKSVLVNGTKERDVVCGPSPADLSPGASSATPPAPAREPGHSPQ
T4 sequence (Q07011 24-186 limits assumed): as the sequence (A9YYE7 entry or part of it) above, with L4P, S19N, K50R, I66T, S67P, Y69F, E75G, A149V counted along it

B1: Clone 3712-IgG1v (IgG1v/kappa) (antibody)
heavy: QVQLVQSGAEVKKPGASVKVSCKASGYTFAGFEMHWVRQAPGQGLEWMGAIDPKTGGTDYNQKFKDRVTMTRDTSISTAYMELSRLRSDDTAVYYCARDLGYFDVWGQGTLVTVSSASTKGPSVFPLAPSSKSTSGGTAALGCLVKDYFPEPVTVSWNSGALTSGVHTFPAVLQSSGLYSLSSVVTVPSSSLGTQTYICNVNHKPSNTKVDKKVEPKSCDKTHTCPPCPAPELLGPSVFLFPPKPKDTLMISRTPEVTCVVVDVEHEDPEVKFNWYVDGVEVHNAKTKPREEQYNSTYRVVSVLTVLHQDWLNGKEYKCKVSNKALPAPIEKTISKAKGQPREPQVYTLPPSREEMTKNQVSLTCLVKGFYPSDIAVEWESNGQPENNYKTTPPVLDSDGSFFLYSKLTVDKSRWQQGNVFSCSVMHEALHNHYTQKSLSLSPGK
light: DIQMTQSPSSLSASVGDRVTITCRASQDIRSNLNWYQQKPGGAVKLLIYYTSRLHSGVPSRFSGSGSGTDYTLTISSLQPEDFATYFCQQSEKLPRTFGGGTKVEIRRTVAAPSVFIFPPSDEQLKSGTASVVCLLNNFYPREAKVQWKVDNALQSGNSQESVTEQDSKDSTYSLSSTLTLSKADYEKHKVYACEVTHQGLSSPVTKSFNRGEC
notes: copies: 2 + 2
Regarding B1, the half-maximal effective concentration (EC50) with Ly048 is 486 µg/mL; in assay [1], 0.33 nM and 0.0474 µg/mL; in assay [2], 0.0562 µg/mL. For the same molecule, the concentration for a half-maximal effect (EC50 (read off the curve)) in the assay with human CD137 on cells was roughly 0.05 µg/mL. The binding result in the assay with human CD20 on CHO cells and in the assay with human CD47 on CHO cells was “no binding” each time.
